# In patent US20060281901:
# Biological target: ubiquitin-amyloid-β peptide fusion protein (H6Ub-Aβ42)
protein,measurement,value
yeast ubiquitin hydrolase-1 (YUH-1) (protein) MSGENRAVVPIESNPEVFTNFAHKLGLKNEWAYFDIYSLTEPELLAFLPRPVKAIVLLFPINEDRKSSTSQQITSSYDVIWFKQSVKNACGLYAILHSLSNNQSLLEPGSDLDNFLKSQSDTSSSKNRFDDVTTDQFVLNVIKENVQTFSTGQSEAPEATADTNLHYITYVEENGGIFELDGRNLSGPLYLGKSDPTATDLIEQELVRVRVASYMENANEEDVLNFAMLGLGPNWE,electrophoresis with Coomassie staining of the enzyme reactant (cleavage of the fusion protein by ubiquitin hydrolase),the binding site between ubiquitin and amyloid-β peptide in the fusion protein is precisely cut by the action of ubiquitin hydrolase and the fusion protein is separated into a ubiquitin fragment and an amyloid-β peptide fragment
